Assay results published in patent publication US20210130436A1.

Molecular target: human CTLA-4, full-length, on transduced CHO cells (human) (UniProt P16410)
Assay: flow cytometry, CHO cells expressing huCTLA4, PE anti-human Fc

Chain of human CTLA-4, full-length, on transduced CHO cells (human) (P16410 36-223): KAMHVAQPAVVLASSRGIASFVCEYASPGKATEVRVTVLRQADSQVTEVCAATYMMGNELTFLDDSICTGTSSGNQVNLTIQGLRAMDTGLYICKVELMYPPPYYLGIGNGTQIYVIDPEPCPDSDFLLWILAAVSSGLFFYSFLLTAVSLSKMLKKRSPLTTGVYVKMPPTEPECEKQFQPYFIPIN

MFI at 33.3 nM: 4690 MFI
Substance: variant CD80 IgV-Fc R29H/E35D/M43V/M47I/I49V (from UniProt P33681 35-141) (Fc fusion)
